First the molecules themselves.
B1: Azoarcus group I ribozyme (parent)
chain: GUGCCUUGCGCCGGGAAACCACGCAAGGGAUGGUGUCAAAUUCGGCGAAACCUAAGCGCCCGCCCGGGCGUAUGGCAACGCCGAGCCAAGCUUCGGCGCCUGCGCCGAUGAAGGUGUAGAGACUAGACGGCACCCACCUAAGGCAAACGCUAUGGUGAAGGCAUAGUCCAGGGAGUGGCGAAAGUCACACAAACCGG

The variants in the series derive from B1. Kind of series: reverse-splicing fitness (ratio to wild type); higher = more active; in vitro selection; Mg2+ level not given. The essentials: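 An in vitro group I ribozyme library with randomized positions was T7-transcribed and gel-purified. In triplicate, 10 pmol RNA in EPPS pH 7.5 was reacted with 50 pmoles of a 30-nt RNA substrate for 1 h at 37 °C across several added MgCl2 levels (1–48 mM), then stopped with EDTA. Products were reverse transcribed from a substrate-complementary primer, PCR-amplified and sequenced (HiSeq 4000). Fitness is a variant's read proportion after selection over that before, normalised to wild type.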
As for C82U A111U A145U C150U C169A, the reverse-splicing fitness is 0.00818. For C82U A111U A145U C150U C169G, the reverse-splicing fitness stood at 0.00898. Regarding C82U A111U A145U C150U U176C, the reverse-splicing fitness is 0.103. In the case of C82U A111U A145U C150U U176G it was 0.0202. As for C82U A111U A145U C150U U176A, the reverse-splicing fitness was found to be 0.0674. As to C82U A111U C150G C169U U176C, the reverse-splicing fitness worked out at 0.0106. In the case of C82U A111U C150G C169U U176A, the reverse-splicing fitness is 0.00687.

Regarding C82U A111U C150G C169U U176G, the reverse-splicing fitness is 0.00604.

Consider C82U A111U A145U C150A U176A, for which the reverse-splicing fitness came out at 0.0154. As to C82U A111U A145U C150A U176C, the reverse-splicing fitness worked out at 0.022.

Take C82U A111U A145U C150A U176G: the reverse-splicing fitness is 0.00782.

Consider C82U A111U A120U C150U C169U, for which the reverse-splicing fitness amounted to 0.00426. Take C82U A111U A120U C150U C169G: the reverse-splicing fitness stood at 0.00465. For the variant C82U A111U A120U C150U C169A, the reverse-splicing fitness was 0.00397. In the case of C82U A111U A120U C150A C169A U176C it was 0.00306; in that of C82U A111U A120U C150A C169A U176G, 0.00224. In the case of C82U A111U A120U C150A C169A U176A, the reverse-splicing fitness stood at 0.00372. As for C82U A111U A145U C169U U176C, the reverse-splicing fitness was 0.0127. Under C82U A111U A145U C169U U176G stands 0.00446; under C82U A111U A145U C169U U176A, 0.0125. Take C82U A111U A120U A145U C169G: the reverse-splicing fitness was found to be 0.00303.

As to C82U A111U A120U A145U C169U, the reverse-splicing fitness is 0.0039. In the case of C82U A111U C150U U176G it was 0.0154. Regarding C82U A111U C150U U176C, the reverse-splicing fitness turned out to be 0.0816.

On to C82U A111U C150U U176A, for which the reverse-splicing fitness was determined as 0.0519. In the case of C82U A111U C169U U176A it was 0.0149; in that of C82U A111U C169U U176G, 0.00559; in that of C82U A111U C169U U176C, 0.013. As to C82U A111U C150G, the reverse-splicing fitness stood at 0.0213. As for C82U A111U C150A, the reverse-splicing fitness came to 0.031. Regarding C82U A111U C150U, the reverse-splicing fitness amounted to 0.157. Consider C82U A111U A145G C169G U176G, for which the reverse-splicing fitness is 0.00528. In the case of C82U A111U A145G C169G U176C it was 0.027; in that of C82U A111U A145G C169G U176A, 0.0207; in that of C82U A111U A145C C150A C169G U176G, 0.00573.

Consider C82U A111U A145C C150A C169G U176A, for which the reverse-splicing fitness came out at 0.0228. Take C82U A111U A145C C150A C169G U176C: the reverse-splicing fitness is 0.0138. As to C82U A111U C169A, the reverse-splicing fitness was 0.00848. Consider C82U A111U C169U, for which the reverse-splicing fitness is 0.0122. Under C82U A111U C169G stands 0.00886.

On to C82U A111U A145U C150A C169G U176G, for which the reverse-splicing fitness amounted to 0.00594. C82U A111U A145U C150A C169G U176A: the reverse-splicing fitness came to 0.011. On to C82U A111U A145U C150A C169G U176C, for which the reverse-splicing fitness was 0.0121. Regarding C82U A111U C150G U176G, the reverse-splicing fitness came out at 0.00369. In the case of C82U A111U C150G U176A it was 0.00833. As to C82U A111U C150G U176C, the reverse-splicing fitness is 0.0152.

With C82U A111U A120U A145U C169A U176G, the reverse-splicing fitness is 0.0017.

C82U A111U A120U A145U C169A U176A: the reverse-splicing fitness turned out to be 0.00233. C82U A111U A120U A145U C169A U176C: the reverse-splicing fitness is 0.00301. Consider C82U A111U A145U C150G C169G U176C, for which the reverse-splicing fitness was found to be 0.00578. Take C82U A111U A145U C150G C169G U176G: the reverse-splicing fitness was 0.00587. On to C82U A111U A145U C150G C169G U176A, for which the reverse-splicing fitness came out at 0.00698. Under C82U A111U A145U C150U C169G U176C stands 0.0127; under C82U A111U A145U C150U C169G U176A, 0.0107.

Consider C82U A111U A145U C150U C169G U176G, for which the reverse-splicing fitness was 0.00583.

Take C82U A111U A145G C150A C169U U176A: the reverse-splicing fitness worked out at 0.016. In the case of C82U A111U A145G C150A C169U U176C, the reverse-splicing fitness is 0.0133. For the variant C82U A111U A145G C150A C169U U176G, the reverse-splicing fitness came to 0.00658. In the case of C82U A111U A145G C150U C169U, the reverse-splicing fitness was 0.0113. Under C82U A111U A145G C150U C169A stands 0.0102. Regarding C82U A111U A145G C150U C169G, the reverse-splicing fitness was found to be 0.00883.

With C82U A111U C150A C169A U176A, the reverse-splicing fitness is 0.0195. Consider C82U A111U C150A C169A U176C, for which the reverse-splicing fitness was determined as 0.0168. In the case of C82U A111U C150A C169A U176G it was 0.00696; in that of C82U A111U A145C C169G U176G, 0.00539. In the case of C82U A111U A145C C169G U176A it was 0.0234; in that of C82U A111U A145C C169G U176C, 0.0126.

On to C82U A111U A120U C150A C169U U176G, for which the reverse-splicing fitness is 0.00301. Turning to C82U A111U A120U C150A C169U U176A, the reverse-splicing fitness came out at 0.0059. For C82U A111U A120U C150A C169U U176C, the reverse-splicing fitness was determined as 0.00379.

In the case of C82U A111U A145U C150A C169U U176G, the reverse-splicing fitness worked out at 0.00593. In the case of C82U A111U A145U C150A C169U U176C it was 0.0118; in that of C82U A111U A145U C150A C169U U176A, 0.0133; in that of C82U A111U A145U C150G C169U U176G, 0.00616. With C82U A111U A145U C150G C169U U176C, the reverse-splicing fitness came to 0.0107. For the variant C82U A111U A145U C150G C169U U176A, the reverse-splicing fitness is 0.00893. In the case of C82U A111U A145C C150U C169G, the reverse-splicing fitness came out at 0.00801. In the case of C82U A111U A145C C150U C169U it was 0.0089; in that of C82U A111U A145C C150U C169A, 0.00776.

C82U A111U A120U C150U C169U U176A: the reverse-splicing fitness stood at 0.00527. As for C82U A111U A120U C150U C169U U176C, the reverse-splicing fitness came to 0.0041. Consider C82U A111U A120U C150U C169U U176G, for which the reverse-splicing fitness is 0.00244. C82U A111U A120U A145U U176A: the reverse-splicing fitness amounted to 0.00758.

The record behind these values is the RNAGym collection of RNA variant scans (doi:10.1093/molbev/msab373).
